Target: the molecule itself
Assay: cryo-EM structure

B1: full-length human NCBE (Na+-dependent Cl-/HCO3- exchanger, SLC4A10) (natural protein, UniProt Q6U841 1-1118, looked up)
chain: MEIKDQGAQMEPLLPTRNDEEAVVDRGGTRSILKTHFEKEDLEGHRTLFIGVHVPLGGRKSHRRHRHRGHKHRKRDRERDSGLEDGRESPSFDTPSQRVQFILGTEDDDEEHIPHDLFTELDEICWREGEDAEWRETARWLKFEEDVEDGGERWSKPYVATLSLHSLFELRSCILNGTVLLDMHANTLEEIADMVLDQQVSSGQLNEDVRHRVHEALMKQHHHQNQKKLTNRIPIVRSFADIGKKQSEPNSMDKNAGQVVSPQSAPACVENKNDVSRENSTVDFSKGLGGQQKGHTSPCGMKQRHEKGPPHQQEREVDLHFMKKIPPGAEASNILVGELEFLDRTVVAFVRLSPAVLLQGLAEVPIPTRFLFILLGPLGKGQQYHEIGRSIATLMTDEVFHDVAYKAKDRNDLVSGIDEFLDQVTVLPPGEWDPSIRIEPPKNVPSQEKRKIPAVPNGTAAHGEAEPHGGHSGPELQRTGRIFGGLILDIKRKAPYFWSDFRDAFSLQCLASFLFLYCACMSPVITFGGLLGEATEGRISAIESLFGASMTGIAYSLFGGQPLTILGSTGPVLVFEKILFKFCKEYGLSYLSLRASIGLWTATLCIILVATDASSLVCYITRFTEEAFASLICIIFIYEALEKLFELSEAYPINMHNDLELLTQYSCNCVEPHNPSNGTLKEWRESNISASDIIWENLTVSECKSLHGEYVGRACGHDHPYVPDVLFWSVILFFSTVTLSATLKQFKTSRYFPTKVRSIVSDFAVFLTILCMVLIDYAIGIPSPKLQVPSVFKPTRDDRGWFVTPLGPNPWWTVIAAIIPALLCTILIFMDQQITAVIINRKEHKLKKGCGYHLDLLMVAVMLGVCSIMGLPWFVAATVLSITHVNSLKLESECSAPGEQPKFLGIREQRVTGLMIFILMGSSVFMTSILKFIPMPVLYGVFLYMGASSLKGIQFFDRIKLFWMPAKHQPDFIYLRHVPLRKVHLFTIIQMSCLGLLWIIKVSRAAIVFPMMVLALVFVRKLMDLLFTKRELSWLDDLMPESKKKKLEDAEKEEEQSMLAMEDEGTVQLPLEGHYRDDPSVINISDEMSKTALWRNLLITADNSKDKESSFPSKSSPS
Question: How did the “stoichiometry N” value turn out when B1 was run?
Answer: 2
